Assay results as given in the supplement of paper PMC10567573.

B1: PPFIA4 (parent)
chain: VMTLPSDLRKHRRKLLSPVSREEN

Variants of: B1
Assay: protein stability index of a GFP-peptide fusion (GPS, HEK-293T) (PSI 1-6); higher = more stable
Conditions: c terminus: a fixed tail appended
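Also: lentivirally expressed fusions sorted by FACS into six bins by GFP to DsRed ratio, PSI derived from sequencing read proportions per bin multiplied by bin number.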

Variant | protein stability index
VMTLPSDLRKGRRKLLSPVSREEN | 3.79
VMTLPSDLRKHRRKLHSPVSREEN | 3.89
VMTLPSDLGKHRRKLLSPVSREEN | 4.46
GMTLPSDLRKHRRKLLSPVSREEN | 3.31
VMTLPSDLRKHRRKLLSPVDREEN | 4.01
VMTLPSDLRKHRRKLLSPDSREEN | 4.57
VMTLPSDLRKHRMKLLSPVSREEN | 3.12
VMTLPSDLRKHRRKLLSPVSRPEN | 2.85
VMTLPSDLVKHRRKLLSPVSREEN | 3.82
VMTLPSDLRKHLRKLLSPVSREEN | 2.95
VGTLPSDLRKHRRKLLSPVSREEN | 4.17
VMTLPSDLRKHRRKMLSPVSREEN | 4.08
VMTLPSDLRKHRRKLLEPVSREEN | 3.86
VMTLPSDLRKHRRKLLSPVSREES | 3.91
VMTLPSDLRKHRYKLLSPVSREEN | 3.63
VMTLPSDNRKHRRKLLSPVSREEN | 3.74
VMQLPSDLRKHRRKLLSPVSREEN | 2.85
VMTLPSDLRKHRRKLLSPVFREEN | 2.54
VMTLPSDLRKHRRKLLGPVSREEN | 3.9
SMTLPSDLRKHRRKLLSPVSREEN | 4.27
VMTLPSDLRKHRRSLLSPVSREEN | 3.79
VMTLPSDLRKHRRKLLSPVQREEN | 4.17
VMTLPSDLRKHRRKLLQPVSREEN | 4.08
FMTLPSDLRKHRRKLLSPVSREEN | 2.83

Variant | protein stability index
VMTLPSDLRKHRRKLLSPVSREEQ | 4.05
VMTLPSYLRKHRRKLLSPVSREEN | 3.2
VMTLPSDLRKHQRKLLSPVSREEN | 4.29
VMTLPSDLRSHRRKLLSPVSREEN | 3.88
VMELPSDLRKHRRKLLSPVSREEN | 3.51
MMTLPSDLRKHRRKLLSPVSREEN | 3.89
VMTLPSDLRKHRRKLLSPVSRDEN | 3.5
VMLLPSDLRKHRRKLLSPVSREEN | 2.32
VMTLPSDLRKHRRKLLSPVSREDN | 3.52
VMTTPSDLRKHRRKLLSPVSREEN | 4.28
VMTLPSDLRKHFRKLLSPVSREEN | 3.36
VMTLPSDLRKHRRKLLSPVSSEEN | 4.29
VMTLPSDLRKHNRKLLSPVSREEN | 4.14
VMTLRSDLRKHRRKLLSPVSREEN | 4
VMTLPSDMRKHRRKLLSPVSREEN | 4.01
VMTLPSDLRKHRRKLLSTVSREEN | 4.31
VMTLPYDLRKHRRKLLSPVSREEN | 3.5
VFTLPSDLRKHRRKLLSPVSREEN | 3.19
VMTLPSDLRKHRRKLLSNVSREEN | 3.72
VMTLPSDLRKHYRKLLSPVSREEN | 3.35
VMTLQSDLRKHRRKLLSPVSREEN | 3.4
VMTLPSDLRKHSRKLLSPVSREEN | 4.12
VMTHPSDLRKHRRKLLSPVSREEN | 4.08
VMTLPSDLFKHRRKLLSPVSREEN | 3.31

Variant | protein stability index
IMTLPSDLRKHRRKLLSPVSREEN | 3.55
VMTLPSDLRKHRRKLLSPVSYEEN | 3.34
VMTLPSDLRKHRRKLLSPVEREEN | 4.26
VMPLPSDLRKHRRKLLSPVSREEN | 3.51
VMTLPSPLRKHRRKLLSPVSREEN | 3.44
VMTLKSDLRKHRRKLLSPVSREEN | 3.4
VMTLPSDLRKHRRKQLSPVSREEN | 3.83
VMTLPHDLRKHRRKLLSPVSREEN | 3.52
VMTLPSDLRKHRTKLLSPVSREEN | 3.98
VMTLPSDLRKHRRYLLSPVSREEN | 3.1
VMTLPSDLRKHRRCLLSPVSREEN | 2.98
VMTLPSDLRKHRRKLLSPVSRAEN | 3.12
VMTLPSDLRKHRRKLASPVSREEN | 4.34
VMTLPSDLRKHRRKLLSPVVREEN | 3.23
VMTLPSDLRKHRRKLLSPVCREEN | 2.69
VMTGPSDLRKHRRKLLSPVSREEN | 4.45
VMTLPSCLRKHRRKLLSPVSREEN | 2.86
VMTLPSDERKHRRKLLSPVSREEN | 4.35
VMTLPSDLRKHRRKLNSPVSREEN | 3.87
VMTLPSDLRKHRRKLLSPVSHEEN | 4.17
VMTLPSDLRKHRRKLLSPVSDEEN | 4.16
VMTLPSDLRKHRRKLLSPVSGEEN | 4
VMTLPSDLRKHRFKLLSPVSREEN | 2.89
DMTLPSDLRKHRRKLLSPVSREEN | 4.35

Variant | protein stability index
VMTLPSDLRKHRRKLLSPVMREEN | 3.82
VMTLPSDIRKHRRKLLSPVSREEN | 4.07
VMTLPSDLRKHRRKLLSPVSEEEN | 4.47
VMTFPSDLRKHRRKLLSPVSREEN | 3.4
VMTLPSDLRKHRRKLTSPVSREEN | 4.31
VMTLPSDLRKHRRDLLSPVSREEN | 4.28
VMTLPSDLRKHRRKLRSPVSREEN | 3.99
VMTLPSDLRKHRRKLLSVVSREEN | 4.09
VMTLPSDLRKHRRKLLSPVSREEW | 2.99
VMTLPSDLRKHRRKLLSPQSREEN | 4.31
VMTLTSDLRKHRRKLLSPVSREEN | 3.67
VMVLPSDLRKHRRKLLSPVSREEN | 2.95
VMTLPSHLRKHRRKLLSPVSREEN | 3.15
VMTLPSDLRWHRRKLLSPVSREEN | 3.35
VMTLCSDLRKHRRKLLSPVSREEN | 2.63
VMTLPSDLRKHRRPLLSPVSREEN | 4.01
VMTLPSDLRKHRPKLLSPVSREEN | 4.33
VMTLNSDLRKHRRKLLSPVSREEN | 3.47
VMTPPSDLRKHRRKLLSPVSREEN | 4.32
VMTLPSDLQKHRRKLLSPVSREEN | 4.49
VMTLPSDLRKHRRKLLSPVSREEF | 2.44
VMTLPSLLRKHRRKLLSPVSREEN | 2.33
VMTLPSDLRKHRRVLLSPVSREEN | 3.13
VMTLPSDLRKHRRKLLSPESREEN | 4.21

Variant | protein stability index
VMTLPSDLRKHRRKILSPVSREEN | 3.9
VMTLPSDLRKHRRKLLSPVHREEN | 3.18
VMTLPSDLTKHRRKLLSPVSREEN | 4
VETLPSDLRKHRRKLLSPVSREEN | 4.54
VMTLPSDLRKHRRKLLRPVSREEN | 3.77
VMTLPSDLRKHPRKLLSPVSREEN | 4.34
VMTLPRDLRKHRRKLLSPVSREEN | 3.41
VMTLPSDLRKHRRKLISPVSREEN | 3.41
VMTLPSDLRKHRRKLLDPVSREEN | 4.29
VMTLPSNLRKHRRKLLSPVSREEN | 3.39
LMTLPSDLRKHRRKLLSPVSREEN | 3.27
VMTLPSDLRKHRIKLLSPVSREEN | 3.47
VMTLPSDLRKWRRKLLSPVSREEN | 3.24
VMTLPSDLRVHRRKLLSPVSREEN | 2.96
VMTLPSDLRKHRRILLSPVSREEN | 3.1
VMTLPSDLRKHRRKLLSPVSCEEN | 4.06
CMTLPSDLRKHRRKLLSPVSREEN | 3.81
VMTLPSDLRKHRRKLLSPVSRETN | 3.04
VMTLPSDLRKHRRKLLSPVSRECN | 2.88
VMTLPSDLRKHRRKLLSPGSREEN | 4.31
VMTLPSDLRKHRRKDLSPVSREEN | 4.63
VMTLASDLRKHRRKLLSPVSREEN | 3.06
VMTLPQDLRKHRRKLLSPVSREEN | 3.63
VMTLPSDLRKHTRKLLSPVSREEN | 4.21

Variant | protein stability index
VMTLPSDLRKHRRKLESPVSREEN | 4.29
VMTLESDLRKHRRKLLSPVSREEN | 4.18
VMTLPSDLRKHVRKLLSPVSREEN | 3.41
VMTLPSDLRKHRRKLLMPVSREEN | 3.48
VMTLPSDLRKHRRKLLLPVSREEN | 3.73
VMTLPSDLRRHRRKLLSPVSREEN | 3.95
VMTLPSDLRKHRRKLLSPVSKEEN | 4.44
VMTLPSDLRKHRRKLLSPVSPEEN | 3.91
VMTLPSDLRKHRRKLLSPVSTEEN | 4.12
VMTLPSDLRKHRRKLCSPVSREEN | 4.37
VMTLPSDLRHHRRKLLSPVSREEN | 3.58
VMTLPSDLRKHRRKLLSSVSREEN | 4.07
VMTLPPDLRKHRRKLLSPVSREEN | 3.97
VTTLPSDLRKHRRKLLSPVSREEN | 4.46
VMTLPSKLRKHRRKLLSPVSREEN | 3.19
VMTLPSDLRKHGRKLLSPVSREEN | 3.86
VMTLPSDLCKHRRKLLSPVSREEN | 4.01
VMNLPSDLRKHRRKLLSPVSREEN | 2.82
VMTLVSDLRKHRRKLLSPVSREEN | 2.76
VMTLPSDLRKPRRKLLSPVSREEN | 4.4
VMTLISDLRKHRRKLLSPVSREEN | 2.12
VMTLPSDLRTHRRKLLSPVSREEN | 4.02
VMTLPSDVRKHRRKLLSPVSREEN | 4.11
VMTLPSDLRKHRRKLLFPVSREEN | 4.01

Variant | protein stability index
VMTLPSDLRKHRRKLLSPVSREEP | 3.45
VMTLPSDLWKHRRKLLSPVSREEN | 3.49
VMTLPSDLRKHRRKLLSPSSREEN | 4.21
VMTLPSDLRKHRRKLLSEVSREEN | 4.62
VMTLPSDSRKHRRKLLSPVSREEN | 4.73
VMTLPSDLRKHRRKLLSPVGREEN | 4.22
VMTLPSMLRKHRRKLLSPVSREEN | 2.94
VMTLPSDLRKHRRKLLSPVSRQEN | 3.19
VMTLPSDLRKHRRALLSPVSREEN | 3.61
VMTLPSDLRKHRRKLLSPPSREEN | 4.53
VMTLPSDLRKHRHKLLSPVSREEN | 4.05
VMALPSDLRKHRRKLLSPVSREEN | 3.92
VMTLPSDLRKHRRKLLSPVYREEN | 2.98
VMTLPSDLRKHRRKLLSGVSREEN | 4.12
VMTLPSDLRKHRRKLLSPVIREEN | 3.84
VMTLPSDLRKHRRKLLCPVSREEN | 3.65
VMTLPSDLRKHRRKRLSPVSREEN | 3.92
VMTLPSDLDKHRRKLLSPVSREEN | 4.1
QMTLPSDLRKHRRKLLSPVSREEN | 4.35
VMTLPSDLRKHRRKLLSPVSREEV | 3.27
VMTLPSDLRKHRRKHLSPVSREEN | 4.02
VMTLPSDLRKHRNKLLSPVSREEN | 3.95
VMTLPSDPRKHRRKLLSPVSREEN | 3.84
VMTLPSDLRKHRRKLLSPVSWEEN | 3.32

Variant | protein stability index
VMTLPSDLRKHRRKLLSPVPREEN | 3.67
VMTLSSDLRKHRRKLLSPVSREEN | 3.08
VCTLPSDLRKHRRKLLSPVSREEN | 3.65
VMTLPSDLRKHRRKLLSPVSREFN | 2.59
VMTLPSDLRKHRRKLLAPVSREEN | 4.24
VMTLPSDLRKHRRKLLSPVSRHEN | 3.52
VMTLPSDLRKHRRKLLSYVSREEN | 3.42
VMTLPSDLYKHRRKLLSPVSREEN | 3.41
VMTDPSDLRKHRRKLLSPVSREEN | 4.14
VMTLPSDLRKHIRKLLSPVSREEN | 3.51
VMTLPNDLRKHRRKLLSPVSREEN | 3.51
VMTLPSDLRNHRRKLLSPVSREEN | 3.77
VMTQPSDLRKHRRKLLSPVSREEN | 4.02
VMTLPSDLRKHRRKLLSPVSRELN | 3.4
VMTLPSDLRKHERKLLSPVSREEN | 4.58
VMTLPSDLRKHRRKLLSPASREEN | 4.06
VMTLPSDLRKHRRKLLSPVSIEEN | 3.9
VMTKPSDLRKHRRKLLSPVSREEN | 4.44
VMTLPSDLRKIRRKLLSPVSREEN | 3.12
VMTLPSDLRKHRRQLLSPVSREEN | 3.94
